B1: Protein Rep68 (Adeno-associated virus 2 (isolate Srivastava/1982)), P03132 (parent)
chain: MPGFYEIVIKVPSDLDGHLPGISDSFVNWVAEKEWELPPDSDMDLNLIEQAPLTVAEKLQRDFLTEWRRVSKAPEALFFVQFEKGESYFHMHVLVETTGVKSMVLGRFLSQIREKLIQRIYRGIEPTLPNWFAVTKTRNGAGGGNKVVDECYIPNYLLPKTQPELQWAWTNMEQYLSACLNLTERKRLVAQHLTHVSQTQEQNKENQNPNSDAPVIRSKTSARYMELVGWLVDKGITSEKQWIQEDQASYISFNAASNSRSQIKAALDNAGKIMSLTKTAPDYLVGQQPVEDISSNRIYKILELNGYDPQYAASVFLGWATKKFGKRNTIWLFGPATTGKTNIAEAIAHTVPFYGCVNWTNENFPFNDCVDKMVIWWEEGKMTAKVVESAKAILGGSKVRVDQKCKSSAQIDPTPVIVTSNTNMCAVIDGNSTTFEHQQPLQDRMFKFELTRRLDHDFGKVTKQEVKDFFRWAKDHVVEVEHEFYVKKGGAKKRPAPSDADISEPKRVRESVAQPSTSDAEASINYADRLARGHSL
partner: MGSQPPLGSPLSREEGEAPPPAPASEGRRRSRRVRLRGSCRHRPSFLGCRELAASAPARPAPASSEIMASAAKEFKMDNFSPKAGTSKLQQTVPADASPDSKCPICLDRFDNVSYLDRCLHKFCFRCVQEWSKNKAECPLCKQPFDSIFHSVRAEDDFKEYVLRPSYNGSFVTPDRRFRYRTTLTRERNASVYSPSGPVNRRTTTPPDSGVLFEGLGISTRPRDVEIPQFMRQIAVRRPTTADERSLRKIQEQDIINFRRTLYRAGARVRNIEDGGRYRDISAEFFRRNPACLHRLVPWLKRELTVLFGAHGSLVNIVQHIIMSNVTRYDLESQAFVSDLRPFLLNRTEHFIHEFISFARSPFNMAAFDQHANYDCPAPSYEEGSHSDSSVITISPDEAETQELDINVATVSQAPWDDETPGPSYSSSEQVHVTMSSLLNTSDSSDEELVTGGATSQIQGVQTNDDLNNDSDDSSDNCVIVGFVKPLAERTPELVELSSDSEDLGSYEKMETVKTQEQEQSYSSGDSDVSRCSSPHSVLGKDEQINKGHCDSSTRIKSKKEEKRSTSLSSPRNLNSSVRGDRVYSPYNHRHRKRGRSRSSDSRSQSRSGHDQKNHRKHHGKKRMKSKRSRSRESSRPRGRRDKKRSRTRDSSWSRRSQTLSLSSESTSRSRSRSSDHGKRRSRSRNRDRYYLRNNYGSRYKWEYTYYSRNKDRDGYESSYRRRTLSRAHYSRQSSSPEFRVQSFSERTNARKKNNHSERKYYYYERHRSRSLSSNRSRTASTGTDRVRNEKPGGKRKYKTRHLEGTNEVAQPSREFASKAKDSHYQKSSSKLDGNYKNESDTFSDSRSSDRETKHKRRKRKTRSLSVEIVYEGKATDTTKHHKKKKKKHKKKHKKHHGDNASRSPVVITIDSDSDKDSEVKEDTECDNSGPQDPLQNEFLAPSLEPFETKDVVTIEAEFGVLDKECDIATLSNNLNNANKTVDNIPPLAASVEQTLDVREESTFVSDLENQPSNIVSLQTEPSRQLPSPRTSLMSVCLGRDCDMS

Variants of: B1
Conditions: with toprs_human TOPORS

Variant	effect of a mutation on the interaction
K340H	increasing interaction

Source: IntAct's records for PubMed 11842245
